Substitutions are numbered along the chain they refer to.
B1: P1AE5733 (antibody, V domains shown)
VH: EVQLVESGGGLVQPGRSLKLSCAASGFSFSNYGMAWVRQAATKGLEWVASISTGGGNTYYRDSVKGRFIVSRDNAKNTQYLQMDSLRSEDTATYYCTRHDRGGLYWGQGVMVTVSS
VL: DIVMTQAPLSVSVTPGESASISCRSSKSLLHSNGITYVYWYFQKPGKSPQVLIYRMSNLASGVPDRFSGSGSETDFTLKISRVEAEDVGIYHCGQLLENPYTFGAGTELELK
B2: P1AE5739 (antibody, V domains shown)
VH: EVQLVESGGGVVQPGRSLRLSCAASGFSFSNYGMAWVRQAPGKGLEWVASISTGGGNTYYRDSVKGRFTISRDNAKNTLYLQMNSLRAEDTAVYYCTRHDRGGLYWGQGTMVTVSS
VL: DIVMTQSPLSLPVTPGEPASISCRSSKSLLHSNGITYVYWYLQKPGQSPQVLIYRMSNLASGVPDRFSGSGSGTDFTLKISRVEAEDVGVYHCGQLLENPYTFGQGTKLEIK
B3: P1AE5742 (antibody, V domains shown)
VH: B2 VH
VL: DIVMTQSPDSLAVSLGERATINCKSSKSLLHSNGITYVYWYQQKPGQPPKLLIYRMSNLASGVPDRFSGSGSGTDFTLTISSLQAEDVAVYHCGQLLENPYTFGQGTKLEIK
B4: P1AE5743 (antibody, V domains shown)
VH: B2 VH
VL: EIVLTQSPGTLSLSPGERATLSCRASKSLLHSNGITYVYWYQQKPGQAPRLLIYRMSNLASGIPDRFSGSGSGTDFTLTISRLEPEDFAVYHCGQLLENPYTFGQGTKLEIK
B5: P1AE5756 (antibody, V domains shown)
VH: B2 VH with V11L, R16G
VL: B2 VL with Q47K
B6: P1AE5754 (antibody, V domains shown)
VH: B2 VH with R61A
VL: B4 VL
B7: P1AE5740 (antibody, V domains shown)
VH: B2 VH
VL: B2 VL with Q47K
B8: P1AE5755 (antibody, V domains shown)
VH: B2 VH with V11L, R16G
VL: B2 VL
B9: P1AE5752 (antibody, V domains shown)
VH: B2 VH with R61A
VL: B2 VL with V51L, L59R
B10: P1AE5750 (antibody, V domains shown)
VH: B2 VH with R61A
VL: B2 VL
B11: P1AE5760 (antibody, V domains shown)
VH: B2 VH with V11L, R16G, R61A
VL: B2 VL
B12: P1AE5759 (antibody, V domains shown)
VH: B2 VH with V11L, R16G
VL: B4 VL
B13: P1AE5745 (antibody, V domains shown)
VH: B2 VH with E1Q, R61A, A75S
VL: B2 VL with Q47K
B14: P1AE5737 (antibody, V domains shown)
VH: B2 VH with E1Q, A75S
VL: B3 VL
B15: P1AE5734 (antibody, V domains shown)
VH: B2 VH with E1Q, A75S
VL: B2 VL
B16: P1AE5751 (antibody, V domains shown)
VH: B2 VH with R61A
VL: B2 VL with Q47K
B17: P1AE5736 (antibody, V domains shown)
VH: B2 VH with E1Q, A75S
VL: B2 VL with V51L, L59R
B18: P1AE5753 (antibody, V domains shown)
VH: B2 VH with R61A
VL: B3 VL
B19: P1AE5758 (antibody, V domains shown)
VH: B2 VH with V11L, R16G
VL: B3 VL
B20: P1AE5747 (antibody, V domains shown)
VH: B2 VH with E1Q, R61A, A75S
VL: B3 VL
B21: P1AE5761 (antibody, V domains shown)
VH: B2 VH with V11L, R16G, R61A
VL: B2 VL with Q47K
B22: P1AE5746 (antibody, V domains shown)
VH: B2 VH with E1Q, R61A, A75S
VL: B2 VL with V51L, L59R
B23: P1AE5744 (antibody, V domains shown)
VH: B2 VH with E1Q, R61A, A75S
VL: B2 VL
B24: P1AE5764 (antibody, V domains shown)
VH: B2 VH with V11L, R16G, R61A
VL: B4 VL
B25: P1AE5762 (antibody, V domains shown)
VH: B2 VH with V11L, R16G, R61A
VL: B2 VL with V51L, L59R
B26: P1AE5738 (antibody, V domains shown)
VH: B2 VH with E1Q, A75S
VL: B4 VL
B27: P1AE5735 (antibody, V domains shown)
VH: B2 VH with E1Q, A75S
VL: B2 VL with Q47K
B28: P1AE5763 (antibody, V domains shown)
VH: B2 VH with V11L, R16G, R61A
VL: B3 VL
B29: P1AE5749 (antibody, V domains shown)
VH: B2 VH with E1Q, R61A, A75S
VL: B4 VL
B30: P1AE5757 (antibody, V domains shown)
VH: B2 VH with V11L, R16G
VL: B2 VL with V51L, L59R
B31: P1AE5741 (antibody, V domains shown)
VH: B2 VH
VL: B2 VL with V51L, L59R
B32: 10B10-TCB (bispecific antibody)
light 1: DIQLTQSPHSLSASLGETVSIECLASEGISNYLAWFHQKPGKSPQLLIYYASSLQDGVPSRFSGSGSGTQYSLKISNMQPEDEGVYYCQQGYKYPLTFGSGTKLEIKRTVAAPSVFIFPPSDRKLKSGTASVVCLLNNFYPREAKVQWKVDNALQSGNSQESVTEQDSKDSTYSLSSTLTLSKADYEKHKVYACEVTHQGLSSPVTKSFNRGEC
light 2: EVQLLESGGGLVQPGGSLRLSCAASGFTFSTYAMNWVRQAPGKGLEWVSRIRSKYNNYATYYADSVKGRFTISRDDSKNTLYLQMNSLRAEDTAVYYCVRHGNFGNSYVSWFAYWGQGTLVTVSSASVAAPSVFIFPPSDEQLKSGTASVVCLLNNFYPREAKVQWKVDNALQSGNSQESVTEQDSKDSTYSLSSTLTLSKADYEKHKVYACEVTHQGLSSPVTKSFNRGEC
heavy 1: EVQLVESGGGLVQPGRSMKLSCAASGFTFTNFYMAWVRQAPTKALEWVASINTGGGYTYYRDSVKGRFTVSRDNTRSTLYLQMDSLRSEETATYYCARHLTYYGRYYYFDYWGQGVMVTVSSASTKGPSVFPLAPSSKSTSGGTAALGCLVEDYFPEPVTVSWNSGALTSGVHTFPAVLQSSGLYSLSSVVTVPSSSLGTQTYICNVNHKPSNTKVDEKVEPKSCDKTHTCPPCPAPEAAGGPSVFLFPPKPKDTLMISRTPEVTCVVVDVSHEDPEVKFNWYVDGVEVHNAKTKPREEQYNSTYRVVSVLTVLHQDWLNGKEYKCKVSNKALGAPIEKTISKAKGQPREPQVCTLPPSRDELTKNQVSLSCAVKGFYPSDIAVEWESNGQPENNYKTTPPVLDSDGSFFLVSKLTVDKSRWQQGNVFSCSVMHEALHNHYTQKSLSLSPGK
heavy 2: not shown

These binders were tested against T1, human GPRC5D (human, UniProt Q9NZD1 1-345) (assay: cell-based or functional assay).
T1 sequence (Q9NZD1 whole entry): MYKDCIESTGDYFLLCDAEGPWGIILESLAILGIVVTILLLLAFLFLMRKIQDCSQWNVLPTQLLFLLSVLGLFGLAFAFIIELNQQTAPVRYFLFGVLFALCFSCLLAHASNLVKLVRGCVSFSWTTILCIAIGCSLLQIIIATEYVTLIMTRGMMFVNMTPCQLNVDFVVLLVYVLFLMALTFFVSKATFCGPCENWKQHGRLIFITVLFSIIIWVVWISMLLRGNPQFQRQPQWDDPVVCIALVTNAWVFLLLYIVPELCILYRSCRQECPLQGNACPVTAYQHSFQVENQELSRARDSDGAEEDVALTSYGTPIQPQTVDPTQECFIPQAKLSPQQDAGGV

Going from B1 to B2, the “CAR-J2 EC50 (PGLALA-CAR-J activation, L363 target cells)” value (from here on “CAR-J2 EC50”) rises from 0.00265 µg/mL to 0.0235 µg/mL (8.9-fold).

Compared with B3, B4 is 9.4-fold higher in “CAR-J2 EC50” value: 0.0619 µg/mL for the first, 0.583 µg/mL for the second.

Compared with B5, B6 is 19-fold lower in “CAR-J2 EC50” value: 0.17 µg/mL for the first, 0.00889 µg/mL for the second.

Compared with B7, B8 is 17-fold higher in “CAR-J2 EC50” value: 0.00896 µg/mL for the first, 0.152 µg/mL for the second.

Going from B9 to B10, the “CAR-J2 EC50” value falls from 0.509 µg/mL to 0.0206 µg/mL (25-fold).

Compared with B11, B12 is 12-fold lower in “CAR-J2 EC50” value: 0.19 µg/mL for the first, 0.0157 µg/mL for the second.

Going from B13 to B14, the “CAR-J2 EC50” value rises from 0.00162 µg/mL to 0.00295 µg/mL (1.8-fold).

First: B15
Second: B16
The “CAR-J2 EC50” value of the first is 6.4-fold higher: 0.0415 µg/mL for the first, 0.00644 µg/mL for the second.

First: B17
Second: B18
The “CAR-J2 EC50” value of the first is 22-fold lower: 0.00138 µg/mL for the first, 0.03 µg/mL for the second.

B19 and B20 are within 1.5-fold of each other in “CAR-J2 EC50” value: 0.19 µg/mL for the first, 0.183 µg/mL for the second.

First: B21
Second: B22
The “CAR-J2 EC50” value of the first is 6.9-fold lower: 0.0746 µg/mL for the first, 0.514 µg/mL for the second.

Going from B23 to B24, the “CAR-J2 EC50” value rises from 0.00363 µg/mL to 0.0782 µg/mL (22-fold).

Compared with B25, B26 is 4.7-fold higher in “CAR-J2 EC50” value: 0.0842 µg/mL for the first, 0.397 µg/mL for the second.

Compared with B27, B28 is 15-fold lower in “CAR-J2 EC50” value: 0.0821 µg/mL for the first, 0.00547 µg/mL for the second.

Going from B29 to B30, the “CAR-J2 EC50” value rises from 0.0826 µg/mL to 0.145 µg/mL (1.8-fold).

B31 was tested, and the “CAR-J2 EC50” value was 0.0014 µg/mL.

Target: T1, human GPRC5D
Assay: cell-based or functional assay
Remark: another data set of the same source

With B32 the “EC50 of in vitro killing, AMO-1 cells” value was 0.084 nM.

For B32, the “EC50 of in vitro killing, EJM cells” value was 0.079 nM.

With B32 the “EC50 of in vitro killing, L363 cells” value was 0.034 nM.

For B32, the “EC50 of in vitro killing, MOLP-2 cells” value was 0.16 nM.

B32 was tested, and the “EC50 of in vitro killing, NCI-H929 cells” value was 0.056 nM.

With B32 the “EC50 of in vitro killing, OPM-2 cells” value was 0.028 nM.

With B32 the “EC50 of in vitro killing, RPMI cells” value was 0.965 nM.
